Experimental findings from PMC9731233 are described below.

The target in test [1] is antitoxin PrpA^FL (Pseudoalteromonas rubra). Briefly: crystal structure; PrpTA complex, ~3.6 mg/ml in 0.1 M NaCl, 0.05 M Tris pH 8.0; sitting drop, 16°C; molecular replacement.
Test [2] has the same target. Description: SEC-MALS; purified PrpTA complex, PrpA^FL and PrpA^2–54 samples (Figure 1A); buffer of these runs not told.
Test [3] deals with truncated antitoxin PrpA^2–54 (Pseudoalteromonas rubra). Briefly: SEC-MALS; PrpA^2–54 at increased protein concentration (within a limited range; concentrations not given).
The target is the same in test [4]. Description: SEC-MALS; purified PrpTA complex, PrpA^FL and PrpA^2–54 samples (Figure 1A); buffer of these runs not told. (In general: Size exclusion chromatography separates by hydrodynamic size, large species first.)
The target is the same in test [5]. Description: SEC-MALS; PrpA^2–54 in phosphate buffer (PB), 100 mM NaH2PO4/Na2HPO4 pH 8.0.
The target is the same in test [6]. Description: crystal structure; PrpA^2–54 form I and form II, ~5.2 mg/ml in 0.1 M NaCl, 0.05 M Tris pH 8.0; sitting drop, 16°C; molecular replacement with VcParD2 (PDB 7B22).

Usually stoichiometry N stands for the number of molecules, sites or subunits per partner or assembly.

In the case of antitoxin PrpA^FL (natural protein), the stoichiometry N worked out at 2 in test [1] and 4 in test [2].

Turning to “truncated antitoxin PrpA^2–54 (domain or fragment)”, the stoichiometry N in test [3] amounted to 6; in test [4], 2; in test [5], 4; in test [6], 16.
